Results from paper PMC3229514, “Both hMutSα and hMutSß DNA Mismatch Repair Complexes Participate in 5-Fluorouracil Cytotoxicity”.

Tests used:
hMutSα = hMutSα (human, UniProt P43246;P52701 1-934;1-1360); assay: SPR (IAsys); 10 mM Mg2+; EMSA: 100 nM hMutSβ, 20 mM HEPES pH 7.6, 1 mM EDTA, 1 mM DTT, 10% glycerol, 100 µg poly(dI-dC), 10 µl; IAsys: 100 nM protein, 25 mM Tris-Cl pH 7.8, 20 mM NaCl; settings: protein: recombinant; copies: 1;1; label: 5'-32P on S5 (EMSA); 5'-biotin on S5 (IAsys); blunt; 5FdU opposite A by the printed complement
hMutSβ (hMSH2-hMSH3) = hMutSβ (hMSH2-hMSH3) (human, UniProt P43246;P20585 1-934;1-1137); assay: as above; settings: protein: recombinant, copies: 1;1, label: 5'-32P on S5 (EMSA), 5'-biotin on S5 (IAsys)

B1: 5-FU-containing 38-mer duplex (dsDNA)
DNA 1: TTTCTGACTTGGATACCAUCTATCTATCTATAAAATAT
DNA 2: ATATTTTATAGATAGATAGATGGTATCCAAGTCAGAAA
modifications: 5-fluoro-2'-deoxyuridine at position 19 of strand 1 (written U)
binding signal (hMutSα): ~2 fold vs hMutSβ on same DNA | binding signal (hMutSβ (hMSH2-hMSH3); blunt, 5FdU opposite A by the printed complement): ~1.3 fold vs complementary DNA

B2: AA insertion/deletion loop duplex (dsDNA)
DNA 1: TTTCTGACTTGGATACCATCTATCTATCTATAAAAAATAT
DNA 2: ATATTTTATAGATAGATAGATGGTATCCAAGTCAGAAA
binding signal (hMutSβ (hMSH2-hMSH3); blunt ends, 2-nt AA loop in strand 1 (40 nt vs 38 nt)): ~1.8 fold vs complementary DNA
